# Test results as given in PMC7689938, “Abscisic acid promotes jasmonic acid biosynthesis via a ‘SAPK10‐bZIP72‐AOC’ pathway to synergistically inhibit seed germination in rice (Oryza sativa)” (The New Phytologist, 2020).
# T1: GST-SAPK10 (rice (Oryza sativa L. ssp. japonica cv …, UniProt Q75H77 1-362))
# T1 construct: SAPK10 (SnRK2 type kinase), rice; full-length CDS in pGEX-4T-1; Purified GST-SAPK10 gave a phosphorylation band with Phos-tag (autophosphorylation, not detected in S177A); source: Transetta (DE3) cells, purified (GST-Sefinose Kit)
# T1 sequence (looked up): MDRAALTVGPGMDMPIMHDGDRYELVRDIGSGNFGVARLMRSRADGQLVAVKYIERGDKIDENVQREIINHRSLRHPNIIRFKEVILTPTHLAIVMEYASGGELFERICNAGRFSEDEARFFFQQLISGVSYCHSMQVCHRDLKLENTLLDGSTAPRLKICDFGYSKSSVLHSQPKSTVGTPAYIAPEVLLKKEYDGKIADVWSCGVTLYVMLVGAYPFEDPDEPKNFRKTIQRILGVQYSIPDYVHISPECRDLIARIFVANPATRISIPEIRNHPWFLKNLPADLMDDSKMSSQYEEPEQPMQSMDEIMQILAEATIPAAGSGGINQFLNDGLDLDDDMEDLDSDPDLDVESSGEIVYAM
# B1: His-SAPK10 (enzyme, UniProt Q75H77 1-362, looked up)
# chain: MDRAALTVGPGMDMPIMHDGDRYELVRDIGSGNFGVARLMRSRADGQLVAVKYIERGDKIDENVQREIINHRSLRHPNIIRFKEVILTPTHLAIVMEYASGGELFERICNAGRFSEDEARFFFQQLISGVSYCHSMQVCHRDLKLENTLLDGSTAPRLKICDFGYSKSSVLHSQPKSTVGTPAYIAPEVLLKKEYDGKIADVWSCGVTLYVMLVGAYPFEDPDEPKNFRKTIQRILGVQYSIPDYVHISPECRDLIARIFVANPATRISIPEIRNHPWFLKNLPADLMDDSKMSSQYEEPEQPMQSMDEIMQILAEATIPAAGSGGINQFLNDGLDLDDDMEDLDSDPDLDVESSGEIVYAM
# notes: SAPK10 (SnRK2 type kinase), rice; full-length CDS in pET28a; source: Transetta (DE3) cells, purified (6 x His-Tagged Protein Purification Kit)
# B2: His-SAPK10^S177A (enzyme, UniProt Q75H77 1-362, looked up)
# chain: MDRAALTVGPGMDMPIMHDGDRYELVRDIGSGNFGVARLMRSRADGQLVAVKYIERGDKIDENVQREIINHRSLRHPNIIRFKEVILTPTHLAIVMEYASGGELFERICNAGRFSEDEARFFFQQLISGVSYCHSMQVCHRDLKLENTLLDGSTAPRLKICDFGYSKSSVLHSQPKATVGTPAYIAPEVLLKKEYDGKIADVWSCGVTLYVMLVGAYPFEDPDEPKNFRKTIQRILGVQYSIPDYVHISPECRDLIARIFVANPATRISIPEIRNHPWFLKNLPADLMDDSKMSSQYEEPEQPMQSMDEIMQILAEATIPAAGSGGINQFLNDGLDLDDDMEDLDSDPDLDVESSGEIVYAM
# notes: SAPK10, rice, Ser177 replaced by alanine; full-length CDS in pET28a; source: Transetta (DE3) cells, purified (6 x His-Tagged Protein Purification Kit)
# Target: T1, GST-SAPK10
# Assay: pull-down; GST fusion on glutathione high-capacity magnetic agarose beads; 50 mM Tris-HCl pH 7.5, 5% glycerol, 1 mM EDTA, 1 mM DTT, 1 mM PMSF, 0.01% Nonidet P-40, 150 mM KCl; 4°C, 2 h; blots with anti-His and anti-GST
# Settings: both partners purified
row,Binder,binding result
1,B1,binds
2,B2,binds
